# Measured values published in patent publication US9266964.
# Numbering of substitutions follows the chain as printed.
# B1: M9-C10 (Fab, V domains shown)
# VH: EVQLLESGGGLVQPGGSLRLSCAASGFTFSLYPMQWVRQAPGKGLEWVSSIGSSGGMTFYADSVKGRFTISRDNSKNTLYLQMNSLRAEDTAVYYCTREVGAAGFAFDIWGQGTMVTVSS
# VL: DIQMTQSPSSLSASVGDRVTITCRASQGISSYLNWYQQKPGNAPNLLIYGASSLQSGVPSRFSGSGSGTDFTLTISSLQPEDFATYYCQESYSTLFTFGPGTTVEIK
# notes: Fab fragment (E. coli TG1); printed HC runs into the start of CH1
# B2: M9-F08 (Fab, V domains shown)
# VH: EVQLLESGGGLVQPGGSLRLSCAASGFTFSPYAMTWVRQAPGKGLEWVSVIYPSGGFTDYADSVKGRFTISRDNSKNTLYLQMNSLRAEDTAMYYCARASGSYLDAFDIWGQGTMVTVSS
# VL: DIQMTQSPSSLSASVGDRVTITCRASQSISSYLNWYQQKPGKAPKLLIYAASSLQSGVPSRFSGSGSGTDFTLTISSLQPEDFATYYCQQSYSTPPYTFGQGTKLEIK
# notes: Fab fragment (E. coli TG1); printed HC runs into the start of CH1; The LC is printed with an amber codon 'q' (MTqSPS), written here as Q
# B3: M9-D08 (Fab, V domains shown)
# VH: EVQLLESGGGLVQPGGSLRLSCAASGFTFSWYKMMWVRQAPGKGLEWVSSIYPSGGWTNYADSVKGRFTISRDNSKNTLYLQMNSLRAEDTAVYYCTRGSPWGDDAFDIWGQGTMVTVSS
# VL: DIQMTQSPSSLSASVGDRVTLTCRASRTISFYLNWYQQKAGKAPELLIYGGSSLHSGVPSRFSGSGSGTDFSLTISNLQPEDIAVYYCQQSFSSPWTFGQGTKVEIK
# notes: as for B1
# B4: M9-C08 (Fab, V domains shown)
# VH: EVQLLESGGGLVQPGGSLRLSCAASGFTFSHYGMVWVRQAPGKGLEWVSYIVPSGGLTYYADSVKGRFTISRDNSKNTLYLQMNSLRAEDTAVYYCARVDYTGDGLGYWGQGTLVTVSS
# VL: DIQMTQSPSSLSASVGDRVTITCRASQSISIYVNWYQQKPGKAPNLLIFAASSLQRGVPSRFSGSGSGADFTLTISSLQPEDFATYYCQQSFSTPLTFGGGTKVEIK
# notes: as for B1
# B5: M9-F09 (Fab, V domains shown)
# VH: EVQLLESGGGLVQPGGSLRLSCAASGFTFSSYPMGWVRQAPGKGLEWVSRISSSGGMTIYADSVKGRFTISRDNSKNTLYLQMNSLRAEDTAVYYCARDDWNVGMDVWGQGTTVTVSS
# VL: DIQMTQSPSSLSASVGDRVTITCRASQSISSYLNWYQQKPGKAPKLLIYAASSLQSGVPSKFSGSGSGTDYTLTISSLQPEDFATYYCQQTYTTPWTFGQGTKVEIK
# notes: as for B1
# B6: M9-E04 (Fab, V domains shown)
# VH: EVQLLESGGGLVQPGGSLRLSCAASGFTFSEYDMMWVRQAPGKGLEWVSSIGSSGGMTYYADSVKGRFTISRDNSKNTLYLQMNSLRAEDTAVYYCARDQVAAAAIDYWGQGTLVTVSS
# VL: DIQMIQSPSSLSASVGDRVTITCRASQSISGYLNWYQQRSGKAPKLLIFAASNLQTGVPSRFSGSGSGTDFTLTINNLQPEDFATYYCQQSHTPPKTFGPGTKVDIK
# notes: as for B1
# B7: M9-A08 (Fab, V domains shown)
# VH: EVQLLESGGGLVQPGGSLRLSCAASGFTFSAYEMWWVRQAPGKGLEWVSYIGSSGGSTSYADSVKGRFTISRDNSKNTLYLQMNSLRAEDTAVYYCTGGNSSSFDAFDIWGQGTMVTVSS
# VL: DIQMTQSPSSLSASVGDRVTVTCRASQRISTYLNWYQQKPGKAPKLLISGASSLQSGVPSRFSGSGSGTDFTLTISSLQPDDFATYYCQQSYNTPRTFGQGTKVEIR
# notes: as for B1
# B8: M197-C12 (Fab, V domains shown)
# VH: EVQLLESGGGLVQPGGSLRLSCAASGFTFSPYDMLWVRQAPGKGLEWVSYIVSSGGLTKYADSVKGRFTISRDNSKNTLYLQMNSLRAEDTAVYYCAYRRTGIPRRDAFDIWGQGTMVTVSS
# VL: DIQMTQSPSTLSASVGDRVTITCRASQSISSWLAWYQQKPGKAPNLLIYKASTLESGVPSRFSGSGSGTEFTLTISSLQPDDFATYYCQQYNTYWTFGQGTKVEIK
# B9: M198-A01 (Fab, V domains shown)
# VH: B8 VH with D33T, L35I, G44L, L45G, Y50S, V52S, L57M, K59P
# VL: B8 VL
# B10: M198-G03 (Fab, V domains shown)
# VH: EVQLLESGGGLVQPGGSLRLSCAASGFTFSQYTMVWVRQAPGKGLEWVSWIYSSRANYADSVKGRFTISRDNSKNTLYLQMNSLRAEDTAVYYCAYRRTGIPRRDAFDIWGQGTMVTVSS
# VL: B8 VL
# B11: M195-A12 (Fab, V domains shown)
# VH: B8 VH with D33M, L35M, Y50G, V52Y, S53P, L57Y, K59V
# VL: B8 VL
# B12: M198-H09 (Fab, V domains shown)
# VH: B8 VH with P31I, D33L, L35I, V52G, S53P, L57P, K59E
# VL: B8 VL
# B13: M202-E03 (Fab, V domains shown)
# VH: B8 VH with P31H, D33I, L35M, Y50G, V52Y, L57I, K59V, D110E
# VL: B8 VL
# B14: M196-G12 (Fab, V domains shown)
# VH: B8 VH with P31N, D33S, L35D, Y50R, V52Y, L57G, K59I
# VL: B8 VL
# B15: M202-A10 (Fab, V domains shown)
# VH: B8 VH with P31H, D33I, L35M, Y50G, V52Y, L57I, K59V, Y98F, A108S
# VL: B8 VL
# B16: M195-E12 (Fab, V domains shown)
# VH: B8 VH with P31Y, D33I, L35F, V52S, S53P, L57Y, K59H
# VL: B8 VL
# B17: M200-B01 (Fab, V domains shown)
# VH: B8 VH with P31H, D33I, L35M, Y50G, V52Y, L57I, K59V, I111S
# VL: B8 VL
# B18: M199-B01 (Fab, V domains shown)
# VH: B8 VH with P31H, D33I, L35M, Y50G, V52Y, L57I, K59V, Y98F, I111N
# VL: B8 VL
# B19: M202-A08 (Fab, V domains shown)
# VH: B8 VH with P31H, D33I, L35M, Y50G, V52Y, L57I, K59V, R106W
# VL: B8 VL
# B20: M201-A06 (Fab, V domains shown)
# VH: B8 VH with P31H, D33I, L35M, Y50G, V52Y, L57I, K59V, A108V
# VL: B8 VL
# B21: M201-F11 (Fab, V domains shown)
# VH: B8 VH with P31H, D33I, L35M, Y50G, V52Y, L57I, K59V, T101S
# VL: B8 VL
# B22: M195-F12 (Fab, V domains shown)
# VH: B8 VH with P31H, D33V, L35M, S53P, L57V, K59A
# VL: B8 VL
# B23: M197-G11 (Fab, V domains shown)
# VH: B8 VH with P31T, D33A, L35V, Y50S, V52Y, S53P, L57I, K59T
# VL: B8 VL
# Molecular target: T1, human plasma kallikrein (human, UniProt P03952 20-390; P03952 391-638)
# T1 construct: two disulfide-linked chains; also called pKal; human pKal
# Assay: ELISA; signal on coated biotinylated human plasma kallikrein divided by signal on streptavidin; Fab
# Source text: Abbreviations used: "T/B" is the ELISA signal obtained using of the target (biotinylated plasma kallikrein) divided by the ELISA signal of the "background" (streptavidin); both of which were coated on microtiter plates. "nd" is not determined. The symbol "q" refers to the amber suppressible stop codon (TAG), which is translated as glutamine (Q) in strains of E. coli such as the TG1 cells that were used to express the Fab fragments.
# T1 sequence (P03952 20-390, chain 1 of 2): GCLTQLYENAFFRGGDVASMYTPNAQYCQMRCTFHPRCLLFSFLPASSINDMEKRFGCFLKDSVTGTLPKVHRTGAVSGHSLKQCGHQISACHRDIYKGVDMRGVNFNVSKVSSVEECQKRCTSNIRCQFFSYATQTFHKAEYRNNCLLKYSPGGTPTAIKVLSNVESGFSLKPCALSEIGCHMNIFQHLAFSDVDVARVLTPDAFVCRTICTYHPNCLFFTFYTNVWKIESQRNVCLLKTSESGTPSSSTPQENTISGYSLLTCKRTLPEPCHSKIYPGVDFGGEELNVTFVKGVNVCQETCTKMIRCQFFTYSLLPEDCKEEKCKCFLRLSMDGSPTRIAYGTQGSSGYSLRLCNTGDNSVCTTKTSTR
# T1 sequence (P03952 391-638, chain 2 of 2): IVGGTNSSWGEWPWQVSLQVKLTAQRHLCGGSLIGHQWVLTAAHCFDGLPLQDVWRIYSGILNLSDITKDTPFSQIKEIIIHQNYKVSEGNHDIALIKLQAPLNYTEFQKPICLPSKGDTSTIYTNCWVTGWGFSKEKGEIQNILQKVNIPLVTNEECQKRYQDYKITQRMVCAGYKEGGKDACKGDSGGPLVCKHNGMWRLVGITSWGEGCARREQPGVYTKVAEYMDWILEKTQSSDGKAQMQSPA
row,Binder,Human pKal ELISA (T/B)
1,B1,7.8 T/B (target signal / background signal)
2,B2,10.9 T/B (target signal / background signal)
3,B3,35.9 T/B (target signal / background signal)
4,B4,10.9 T/B (target signal / background signal)
5,B5,7 T/B (target signal / background signal)
6,B6,18.8 T/B (target signal / background signal)
7,B7,5.5 T/B (target signal / background signal)

# Molecular target: human plasma kallikrein (human, UniProt P03952 20-390; P03952 391-638)
# Assay: cell-based or functional assay
# Target sequence in this assay (P03952 20-390, chain 1 of 2): as the sequence (P03952 20-390, chain 1 of 2) above
# Target sequence in this assay (P03952 391-638, chain 2 of 2): as the sequence (P03952 391-638, chain 2 of 2) above
row,Binder,% inhibition at 10 nM
1,B8,56.4%
2,B9,13.8%
3,B10,53.8%
4,B11,51.7%
5,B12,41.1%
6,B13,51.4%
7,B14,51.1%
8,B15,36.3%
9,B16,38%
10,B17,42.6%
11,B18,53.4%
12,B19,52.9%
13,B20,36.8%
14,B21,15.7%
15,B22,45.5%
16,B23,19.2%
